Assay results: patent US20210188980A1 (SHANGHAI EPIMAB BIOTHERAPEUTICS, published 2021)
Numbering of substitutions follows the chain as printed. Each block holds one binder with its values, some of them ahead of it.

Assays:
[1] = biological target: T1, recombinant human LAG-3-his protein (Novoprotein) (human, UniProt P18627 23-450); test: BLI Octet, Ab on AHC sensor, huLAG-3-his; test group 4
T1 construct: Bought; also called huLAG-3; not shown: His tag
T1 sequence (looked up): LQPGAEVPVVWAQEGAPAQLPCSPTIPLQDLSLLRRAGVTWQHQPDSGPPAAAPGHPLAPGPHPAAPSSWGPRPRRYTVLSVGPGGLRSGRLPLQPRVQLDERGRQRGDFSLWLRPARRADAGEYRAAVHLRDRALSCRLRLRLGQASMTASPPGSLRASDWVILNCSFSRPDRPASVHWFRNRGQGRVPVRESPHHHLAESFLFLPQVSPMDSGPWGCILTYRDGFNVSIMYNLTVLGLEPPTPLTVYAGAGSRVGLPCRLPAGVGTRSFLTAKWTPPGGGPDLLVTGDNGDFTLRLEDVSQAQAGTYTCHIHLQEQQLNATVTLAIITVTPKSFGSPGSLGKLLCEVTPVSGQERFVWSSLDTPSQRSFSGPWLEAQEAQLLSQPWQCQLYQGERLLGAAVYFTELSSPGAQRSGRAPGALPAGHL
Procedure: (§1) All 18 humanized antibodies (Table 34) and a chimeric antibody having the parental murine VH and VL domains (mAb747c) were ranked by dissociation rate constant (koff). Briefly, antibodies were characterized for affinities and binding kinetics by Octet®RED96 biolayer interferometry (Pall ForteBio LLC). Antibodies were captured by Anti-hIgG Fc Capture (AHC) Biosensors (Pall) at a concentration of 100 nM for 30 seconds. Sensors were then dipped into running buffer (1× pH7.2 PBS, 0.05% Tween 20, 0.1% BSA) for 60 seconds to check baseline. Binding was measured by dipping sensors into a single concentration of recombinant human LAG-3-his protein (Novoprotein). Dissociation was followed by dipping sensors into running buffer for 1200 seconds. The association and dissociation curves were fitted to a 1:1 Langmuir binding model using FortéBio Data Analysis software (Pall). In each test group, the off-rates of antibodies were able to be compared with that of mAb747c. The off-rate ratios were calculated by the off-rate of antibody to that of mAb747c of its group and were compared all together. The lower the ratio was, the higher was the affinity of the antibody.

[2] = biological target: T1, recombinant human LAG-3-his protein …; test: BLI Octet, Ab on AHC sensor, huLAG-3-his; test group 2
Procedure: as §1, with “9” for “18”, “25)” for “34)”, “Octet RED96” for “Octet®RED96”, “FortéBio” for “ForteBio”, “Anti-HIgG” for “Anti-hIgG”, “(Pall).” for “(Pall). In each test group, the off-rates of antibodies were able to be compared with that of mAb747c. The off-rate ratios were calculated by the off-rate of antibody to that of mAb747c of its group and were compared all together. The lower the ratio was, the higher was the affinity of the antibody.”
The seven Fab clones were converted to full IgG proteins. Briefly, the VH and VL genes were produced synthetically and then cloned into vectors containing coding sequences for the human IgG1 and human kappa constant domains, respectively. The heavy chain and cognate light chain plasmids were co-transfected into HEK 293E cells, individually. After approximately six days of post-transfection cell culture, the supernatants were harvested and subjected to Protein A affinity chromatography. The affinity of purified antibodies was ranked by Octet® RED96 biolayer interferometry (see, Example 9.1, supra).

[3] = biological target: T2, human LAG-3 expressed on cells (human, UniProt P18627 23-525); test: FACS, HEK 293F huLAG-3 cells
T2 construct: whole, on cells; also called HEK 293F cells expressing human LAG-3; T hybridoma-huLAG-3 cells
T2 sequence (looked up): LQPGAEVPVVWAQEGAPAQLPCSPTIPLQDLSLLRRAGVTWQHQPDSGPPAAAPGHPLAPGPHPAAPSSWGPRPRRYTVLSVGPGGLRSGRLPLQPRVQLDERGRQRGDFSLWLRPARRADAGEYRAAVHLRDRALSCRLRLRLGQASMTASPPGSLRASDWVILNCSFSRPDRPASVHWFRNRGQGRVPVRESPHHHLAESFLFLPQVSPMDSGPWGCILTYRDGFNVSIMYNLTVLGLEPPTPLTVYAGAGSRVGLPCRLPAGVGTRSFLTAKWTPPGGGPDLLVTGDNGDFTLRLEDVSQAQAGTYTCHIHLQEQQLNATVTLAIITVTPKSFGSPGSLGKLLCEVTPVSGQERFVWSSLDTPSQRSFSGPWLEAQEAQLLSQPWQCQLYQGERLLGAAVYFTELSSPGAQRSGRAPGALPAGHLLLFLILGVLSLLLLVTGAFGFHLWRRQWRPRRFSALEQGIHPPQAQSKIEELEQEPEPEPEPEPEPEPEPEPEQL
Procedure: (§2) FAGS analysis was performed using methods similar to Example 1.4, above, except that stable HEK 293F cell lines expressing either human LAG-3 cynomolgus LAG-3 were used. LAG-3 expressing cells were charged at 2×10⁴ cell per well into 96-well assay round-bottomed assay plates (Cat. No. 3799; Corning) and stained with purified anti-LAG-3 antibodies. LAG-3 antibodies were detected with AlexaFluor® Donkey anti-Mouse Ig (H+L) Highly Cross-Adsorbed Secondary Antibody (Cat. No. A21202; Invitrogen), and cell fluorescence was monitored using a flow cytometer. The data were processed by GraphPad software, and EC50 values were calculated.

[4] = biological target: T3, human LAG-3 ECD/Fc fusion protein (human); test: ELISA, coated huLAG-3 ECD/Fc
T3 construct: also called HuLAG-3 ECD/Fc
Procedure: The supernatants of hybridoma clones were primarily screened by ELISA. Briefly, 50 μl/well of […] human LAG-3 ECD/Fc in NaHCO₃ were directly coated in each well of 96-well plate overnight. Plates were washed 3 times with 1×PBST, 300 μl per well. After blocking with 1% BSA in PBST at 250 μl per well and incubating at room temperature for 1 hour, the hybridoma supernatants were added at 50 μl per well and incubated at 37° C. for 1 hour. After washing, an HRP-linked goat anti-mouse IgG Fc secondary antibody (Cat. No. A0168, Sigma) was added at 100 μl/well and the plates were incubated at room temperature for 1 hour. TMB reagent (InnoReagents) was used to detect and develop the ELISA signal at 100 μl/well for 15 minutes, the reaction was stopped with 1 Normal HCL. The plates were read with a plate reader (SpectraMax® M5e, Molecular Devices, USA) at a wavelength of 450 nm. The ELISA-positive antibody producer clones were further verified by FACS analysis using methods similar to Example 1.4, above, except that stable HEK 293F cell lines expressing either human LAG-3 or cynomolgus LAG-3 were used. Hybridomas producing LAG-3 binding activity were selected and further characterized in a receptor blocking assay (RBA).
A binding ELISA was performed in the same way as described in Example 7.2 above. Each purified antibody was 10-fold serially diluted. After blocking of a 96-well assay plate with wells containing immobilized LAG-3 ECD/Fc fusion protein targets, the purified antibody samples with diluted concentrations were added to wells of the assay plate. The HRP-linked anti-mouse IgG antibody (A0168, Sigma) and TMB reagent were used to detect and develop the ELISA signal, which were read on a SpectraMax M5e plate reader at wavelength of 450 nm. Curves were fitted using GraphPad software, and EC50 values were calculated. Similarly, a RBA was also performed as described in Example 7.3 with titrated, purified antibodies, and maximum inhibition percentages and IC50 values were determined.

[5] = biological target: T3, human LAG-3 ECD/Fc fusion protein; test: FACS RBA, huLAG-3 ECD/Fc on Raji; competitor MHC Class II
Procedure: Supernatants displaying LAG-3 specific activity were tested for the ability to block LAG-3 receptor binding to MHC Class II. Raji human B cell lymphoblasts express high levels of MCH Class II and were used as binding targets for LAG-3 ECD/Fc proteins described above. Briefly, Raji cells were harvested and resuspend in FACS buffer and plated in 96-well plates (2×10⁵ cells/well). Anti-LAG-3 hybridoma supernatants were mixed with soluble LAG-3 ECD/Fc and the mixture was added to wells at a final volume of 100 μl/well. After adding the mixture to cells, the plates were incubated at room temperature for 30 minutes. After washing twice with PBS, the cells were incubated with anti-human IgG Alexa Fluor® 488 secondary antibody at 4° C. for 1 hour, washed twice with PBS, then fluorescence was measured on a flow cytometer.
Purified anti-LAG-3 antibodies also were tested in a RBA in the same manner as described in Example 7.3. Antibodies were also tested in an antigen-specific T cell activation assay, as follows: A huLAG-3 expressing murine T hybridoma cell line was generated to order by ChemPartner (Shanghai, CN). Mouse splenocytes from the same strain of mice were used as effector cells. The hybridoma expressing the huLAG-3 receptor protein is capable of binding to MHC Class II-positive mouse splenocytes, with inhibitory effect via engagement of Class II. The assay tests for anti-LAG-3 antibody-mediated reversal of the inhibitory effect, as measured by increased production of IL-2. Mouse spleenocytes were harvested from 6-8 week-old female C57BL/6 mice, red blood cells were lysed using Red Blood Cell Lysis Buffer (Sigma-Aldrich; R7757) according to the maker's instructions. Next, 50 μl T hybridoma-huLAG-3 cells (2×10⁶ cells/ml) were seeded in each well of a 96-well culture plate, and then a series of anti-LAG-3 monoclonal antibodies in solution at 50 μl/well were added and incubated at 37° C. for 30 min. Mouse splenocytes (4×10⁶ cells/ml) and the antigen (20 μg/ml) were mixed and incubated at 37° C. for 30 min. The mixture (100 μl/well) was added into each well that was already seeded with T hybridoma-huLAG-3 cells and anti-LAG-3 mAbs. The mixture of antibodies, T hybridoma-huLAG-3 cells, mouse splenocytes, and the antigen was cultured for 3 days.

[6] = biological target: T4, cynomolgus LAG-3 expressed on HEK 293F cells (cynomolgus); test: FACS, HEK 293F cynoLAG-3 cells
T4 construct: whole, on cells
Procedure: as §2

[7] = biological target: T2, human LAG-3 expressed on cells; test: cell-based or functional assay

B1: HumAb747-59 (antibody, human IgG1, V domains shown)
VH: EVQLVQSGAEVKKPGATVKLSCTASDFNIKDDYMHWVKQRPEQGLEWIGWIVPENGNTEYASKFQGRATITADTSTNTAYLELSSLRSEDTAVYYCTVYGDYWGQGTTVTVSS
VL: DIQMTQSPSSLSASVGDRVTITCRASQEISGYLSWLQQKPGGAIKRLIYAASTLDSGVPSRFSGSRSGSDYTLTISSLQPEDFADYYCLQYASYPLTFGQGTKLELK
notes: humanized mAb747; human IgG1/kappa constant domains
koff [1]: 0.0012 s⁻¹
off-rate ratio to that of mAb747c [1]: 226%

B2: D1-70-IgG (antibody, V domains shown)
VH: EVQLVQSGAEVKKPGASVKVSCKASGFNIKDDYMHWVRQAPGQGLEWIGWIVPRNGNTMYASKFQGRVTITADTSINTAYMELSRLRSDDTAVYYCTVYGDYWGQGTTVTVSS
VL: B1 VL with T22N, G41E, A43T, S56L, D85T, Q100G, L104V, L106I
notes: human IgG1/kappa constant domains
koff [2]: 0.0026 s⁻¹
off-rate ratio to that of mAb747c [2]: 160%

B3: HumAb747-60 (antibody, human IgG1, V domains shown)
VH: B1 VH with E46D, R67K
VL: B1 VL
notes: as for B1
koff [1]: 0.00081 s⁻¹
off-rate ratio to that of mAb747c [1]: 153%

B4: mAb742 (antibody, V domains shown)
VH: QGQLQQSGAELVRPGASVTLSCKASGYTFNDYEMHWVKQTPVHGLEWIGAIDPETGGTAYNQKFKGKAILTADKSSSTAYMELRSLTSEDSAVYYCIRWGSTVFPYWGQGTLVTVS
VL: DGVLTQTPLSLPVNIGDQASISCKSTKSLLNSDGFTYLDWYLQKPGQSPQLLIYLVSNRFSGVPDRFSGSGSGTDFTLKISRVEAEDLGVYYCFQSNYLPWTFGGGTKLEIK
notes: murine hybridoma anti-LAG-3 mAb
EC50 [3]: 2.8 nM
Max-MFI [3]: 103 MFI
EC50 [4]: 0.22 nM
IC50 [5]: 3.84 nM
Max. Inhib. (%) [5]: 96.5%
EC50 [6]: 56.4 nM
Max-MFI [6]: 48.5 MFI
Max IL-2 [7]: 733 pg/mL

More lines, now with the values ahead:

EC50 [3]: 9.5 nM
Max-MFI [3]: 135 MFI
EC50 [4]: 0.19 nM
IC50 [5]: 10.8 nM
Max. Inhib. (%) [5]: 96.5%
EC50 [6]: 67 nM
Max-MFI [6]: 37.8 MFI
Max IL-2 [7]: 612 pg/mL
B5: mAb744 (antibody, V domains shown)
VH: B4 VH with G2V, A16T, N30T, V37M, E54A, E82D, L83F, S101T
VL: B4 VL with G2V
notes: murine hybridoma anti-LAG-3 mAb; also called rnAb744

EC50 [3]: 13.4 nM
Max-MFI [3]: 73.1 MFI
EC50 [4]: 0.24 nM
IC50 [5]: 4.8 nM
Max. Inhib. (%) [5]: 96.1%
EC50 [6]: 79.6 nM
Max-MFI [6]: 31.9 MFI
Max IL-2 [7]: 539 pg/mL
B6: mAb748 (antibody, V domains shown)
VH: EVQMQQSGAELVRPGASVKLSCTVSGFNIKDDYMHWVKQRPEQGLEWIGWIDPENGDTEYASKFQGKATITADTSSNTAYLQLNSLTSEDTAVYYCTYFDYWGQGTTLTVSS
VL: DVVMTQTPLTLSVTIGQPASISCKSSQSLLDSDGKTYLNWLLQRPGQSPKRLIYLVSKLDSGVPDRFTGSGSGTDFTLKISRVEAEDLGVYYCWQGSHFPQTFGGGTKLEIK
notes: as for B4
